Results taken from paper PMC8311663 (Molecular cell, 2021).

Legend:
[1] = biological target: RNAP core (Mtb);sigmaA;CarD;RbpA (Mycobacterium …, UniProt P9WGZ1;P9WGY9;P9WGY7;P9WGY5;P9WGI1;P9WJG3;P9WHJ5 …, L7M|||); test: cryo-EM
[2] = biological target: RNAP core (Mtb);sigmaA;CarD;RbpA;WhiB7 (Mycobacterium …, UniProt P9WGZ1;P9WGY9;P9WGY7;P9WGY5;P9WGI1;P9WJG3;P9WHJ5;Q6MX01 …, L7M||||); test: cryo-EM

B1: whiB7 promoter (-70 to +30) (dsDNA)
DNA 1: CTGTACCGGCAAACGCGCAGGTCAGAAAATCGGTTGTGGTCAGCTGCTGCCACCGGTTAACCTCCAGGTCGCATTCTGCTGCCAGCCTGGAGATGGCATT
DNA 2: AATGCCATCTCCAGGCTGGCAGCAGAATGCGACCTGGAGGTTAACCGGTGGCAGCAGCTGACCACAACCGATTTTCTGACCTGCGCGTTTGCCGGTACAG
B1: binds [1]; binds [2].
